Entries after “also recorded” stand apart in the source; their conditions may differ. Where two headings read alike, the source gives them in different places.
Assays:
Format in all cases: cell-based
[1] = system: B. subtilis; experiment: Effect of induced expression of cloned SPO1 genes on growth and viability of B. subtilis (liquid medium and colony formation); conditions: cloned gene(s) expressed from IPTG-inducible promoter, * = lethality conclusion based on failure to clone, ** = data not conclusive
Description: (§1) For analysis of antimicrobial activity we first cloned most of the 24 host-takeover genes (genes 37-60) singly or in multiple gene combinations into a B. subtilis/E. coli shuttle vector (pPW19) under control of an IPTG-inducible promoter (Wei and Stewart, 1993). […] These remaining genes are being cloned using expression vectors with more tightly regulated promoters, such as pJONEX4 (Sayers, 1996), pET101, or pX (Kim et al., 1996). The transformed E. coli and B. subtilis were used to determine the antimicrobial activity, if any, of the cloned genes. The effect of induction on bacterial growth and viability was measured both in liquid medium and by colony formation. Definitive establishment of lethality was shown by loss of the ability to form colonies even after removal from the inducing agent. Indication of probable lethality was based on total inability to form colonies under inducing conditions.

[2] = system: E. coli; experiment: Effect of induced expression of cloned SPO1 genes on growth and viability of E. coli (liquid medium and colony formation); conditions: cloned gene(s) expressed from IPTG-inducible promoter, * = lethality conclusion based on failure to clone, ** = data not conclusive
Description: as §1

[3] = system: bacteria; experiment: Toxicity or lethality of expression of cloned SPO1 genes, bacterium not given
Description: as §1
In cells growing in liquid medium, expression of the cloned gene 44 was induced at time 0. At subsequent times, the number of cells remaining viable was measured by plating in the absence of inducer. More than 99% of the cells were killed within three hours.

Gene 58: product of SPO1 host-takeover gene 58, SEQ ID NO: 22 (MTLAGYRVDSCNGCGKAYLVGESHDRKKCAECASK; SPO1 Bacteriophage)
Lethality, B. subtilis [1]: No effect
Lethality, E. coli [2]: Mildly toxic

Gene 37: product of SPO1 host-takeover gene 37, SEQ ID NO: 1 (MSDVIIPFLTSAVTAFIVAYLLDRWYIKRRR; SPO1 Bacteriophage)
toxicity or lethality of expression [3]: lethal
Lethality, E. coli [2]: Lethal *

B1: Gene 46: product of SPO1 host-takeover gene 46, SEQ ID NO: 10 (protein)
chain: MMTEDQKFKYLTKIEELEAGCFSDWTKEDITGDLKYLKKGIIEESIELIRAVNGLTYSEELHDFTQEIIEELDISPL
modifications: SPO1 Bacteriophage
Lethality, B. subtilis [1]: Mildly Toxic
toxicity or lethality of expression [3]: lethal but with diminished efficiency
Lethality, E. coli [2]: Lethal

B2: Gene 47: product of SPO1 host-takeover gene 47, SEQ ID NO: 11 (protein)
chain: MDWTKMTFMGTVDEVKEIWNGLEEAGRLYAVWLSDDHVYGIVDVNEEGLFCLGWVSDISPESLQNMLGGGAELFESYEDVLSEHGGSIAIRVEV
modifications: SPO1 Bacteriophage
Lethality, B. subtilis ([1]; listed as 47): little or no effect; also recorded: No effect
Lethality, E. coli ([2]; listed as 47): little or no effect; also recorded: No effect

B3: Gene 41: product of SPO1 host-takeover gene 41, SEQ ID NO: 5 (protein)
chain: MEKLPNTVVKVHGEGMESKLFPRKLHKDTNSILREDLVSACQEHIEALVEGMIAHGDGRKVAELDTSTQYYWHLKLVEYTPIPGRTQHYVDLVDGTNPDVCYFSLCDCSGDNITDRRWSNMVKRLQNPEEDIAKTLRCYFRQDAGMPSWIEYPQ
modifications: SPO1 Bacteriophage
Lethality, B. subtilis ([1]; listed as 41): lethal; also recorded: Lethal *
Lethality, E. coli ([2]; listed as 41): only a mild effect; also recorded: Mildly Toxic

B4: Gene 39: product of SPO1 host-takeover gene 39, SEQ ID NO: 3 (protein)
chain: MELNLDIYVDYKDKRYKAEGYYGPSVGDLVLIFMDMELEGATVQEVARIEGSEIHLRTPNGNEPSYRYMGQYLILKPYGSSDPRGDILVHEDVQYVRVDAQAMPGDLIEALEPNKLPFSGKRFKYRPAVLEVEYVLTKDEQVLQLENGKSYSGAYRVLIPRMGVLPPKTHIYTTHKHVFMEDVFVLGNSYELSSPNDVEMTPIHAVFTGFSKNRDEAIFVNPYYNDDGVTGTMITVSDLLTGKWDITPLVPKKGV
modifications: SPO1 Bacteriophage
toxicity or lethality of expression ([3]; listed as 39): lethal effect
Lethality, E. coli [2]: Lethal

B5: Gene 43: product of SPO1 host-takeover gene 43, SEQ ID NO: 7 (protein)
chain: MIQLSERQQDLLQVAEKYEQCHIEFYTAQSRLFGTEIMGEVVKTSLGTLKIAHPEEDLFEVALAYLASKKDILTAQERKDVLFYIQNNLC
modifications: SPO1 Bacteriophage
Lethality, B. subtilis ([1]; listed as 43): too inconsistent to permit any conclusion; also recorded: Indeterminate
Lethality, E. coli ([2]; listed as 43): too inconsistent to permit any conclusion; also recorded: Indeterminate

B6: Gene 48: product of SPO1 host-takeover gene 48, SEQ ID NO: 12 (protein)
chain: MPYSKITVPVLVGEGLTEWDVIDVMRETHPPTVEDQYHYHTFDSMQNRTIFVLENPLYPDVDKIPEKVLGIAVDALEDMLDNVPVEDLPVTEEQGNVKRFTTKLASIVFDVFLIIPDFVSVTAKEE
modifications: SPO1 Bacteriophage
Lethality, B. subtilis ([1]; listed as 48): strongly toxic but not lethal; also recorded: Strongly Toxic
Lethality, E. coli ([2]; listed as 48): strongly toxic but not lethal; also recorded: Strongly Toxic

B7: Gene 45: product of SPO1 host-takeover gene 45, SEQ ID NO: 9 (protein)
chain: MMMDKQVEEVKKHYPIVEDWSVIVARKEDDCMTVTDAVPFILAGYKNVSYEMDDIVVLCSEPIGLTWEDVRFLKNHEGSVSFEEIGYEDKAMVYHVDLG
modifications: SPO1 Bacteriophage
Lethality, B. subtilis [1]: Mildly Toxic
toxicity or lethality of expression [3]: toxic but not lethal
Lethality, E. coli [2]: Toxic

B8: Gene 40: product of SPO1 host-takeover gene 40, SEQ ID NO: 4 (protein)
chain: MHIYTYWGLKYVPSNSTMVAKEGDLILLGNEVHKVVKVLHRFRNITDLQITNWKGTETRYNLHVTEYKVLVPYDTHKEENEAMSDSLITHNGKDYVLCKIPARVGDLIRTEDKRVWEVLQKSKDGLVLYNEEKGEQRSAVYSEIGPYHVLVPRDTDTHTPTREELAAVIMNKAFTRTETQDSQEDTGTHKGLGLTGTDLYHSLRDLDAKVQSGYYTATENEEDVKSEIEATKKHMKAVKESGKTVNDYRKEENTKRCKLKALTNKFNRLFLKSVIDTDSLQVGKAYLIGGRDMKNVHGLYTGTTFDQQHANFLIVETDRMHRTLTVSAEQLFAEERHIVDIEKRVEQTED
modifications: SPO1 Bacteriophage
Lethality, B. subtilis ([1]; listed as 40): only mildly toxic; also recorded: Inconsistent
Lethality, E. coli ([2]; listed as 40): only mildly toxic

B9: Gene 57: product of SPO1 host-takeover gene 57, SEQ ID NO: 21 (protein)
chain: MTLFIAGVTLEEVREATVSALFVKLEQEKKALYLGAGSEDSLNLCKSTLDKVQEDYPLDDMEKDYLRDLLQFWLSRLFLGDGFEGEIPDSSEDLRRTATTAFTYTAAIRHYCM
modifications: SPO1 Bacteriophage
Lethality, B. subtilis [1]: No effect
Lethality, E. coli [2]: Mildly toxic

B10: Gene 52: product of SPO1 host-takeover gene 52, SEQ ID NO: 16 (protein)
chain: MTHFISIATYIYALVSAGFIGGWHDEESWIKDTEYEHGGYHMIIDTPAVVNYSLEYGNYQWIFQKYMKEGKVTVERFYRNSLDIPKEILTDEALAFIKDWDENANEYELHAGEGVLYFKYEGEEKGYVIPMAYAGEIMFVPDEDAEKALEIINSQKKY
modifications: SPO1 Bacteriophage
Lethality, E. coli ([2]; listed as 52): Lethal

B11: Gene 38: product of SPO1 host-takeover gene 38, SEQ ID NO: 2 (protein)
chain: MSVQIKHGNKTFVVDPSGDVKEGSYVLYLYEYRLGEVDVGRVSEVANDGRLYLDGPGVIVTLDQPFILLKEVVEEEEDEDDRIDAEFHNDPLLRKLENTTEKLTPEETQLAQWTTMTRVFSHDLKKGIPYAIKHKNSGNILYGLYSGLLNPVTALFRHLNEESKISIEQLKSGLIEIYEVVEDEEESIWN
modifications: SPO1 Bacteriophage
Lethality, B. subtilis [1]: No effect **
Lethality, E. coli [2]: Highly toxic

B12: Gene 42: product of SPO1 host-takeover gene 42, SEQ ID NO: 6 (protein)
chain: MRKFVTTLTASPRNKKVGNHRLEISPFVSLRRYYYFNTAICIENPVTREFAIDDSYGSLSTNQNCAQYRQYFSLGGYKEVSLEEIHAV
modifications: SPO1 Bacteriophage
Lethality, B. subtilis ([1]; listed as 42): no toxic effect
Lethality, E. coli ([2]; listed as 42): no toxic effect
